Experimental data as given in patent US20140120109A1 (Regeneron, published 2014).
Changes are numbered by the printed parent chain. Numbers in names are those of the source. Blank lines part the entries; values can stand above or below the binder they belong to.

Columns and labels:
[1] = target: T1, human TL1A, soluble, CHO-expressed, residues 72-251 of SEQ ID NO:244 with N-terminal His6-tag (human, UniProt O95150 72-251); experiment: SPR 37C, mAb captured
T1 construct: also called hTL1A; hTL1A (CHO)
T1 sequence: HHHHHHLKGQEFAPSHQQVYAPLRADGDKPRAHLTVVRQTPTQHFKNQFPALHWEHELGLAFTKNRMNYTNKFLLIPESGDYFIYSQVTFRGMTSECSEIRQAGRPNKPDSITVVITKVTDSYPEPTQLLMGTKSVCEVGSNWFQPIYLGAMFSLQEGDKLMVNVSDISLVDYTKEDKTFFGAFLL
Method in brief: (§1)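 Biacore T100 SPR with captured mAb and soluble TL1A/Fhm analyte; ka and kd fitted to a 1:1 model assuming monomeric TL1A. KD = kd/ka; t1/2 (min) = ln2/(60·kd).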

[2] = target: T2, cynomolgus monkey TL1A, soluble, CHO-expressed, residues 72-251 of SEQ ID NO:248 with N-terminal His6-tag (cynomolgus monkey (Macaca fascicularis), UniProt O95150 72-251 (human entry)); experiment: SPR 37C, mAb captured
T2 construct: also called MfTL1A; MfTL1A (CHO)
T2 chain: T1 sequence with F45L, I84V
Method in brief: as §1

[3] = target: T3, cynomolgus monkey TL1A, soluble, E. coli-expressed, residues 72-251 of SEQ ID NO:248 (cynomolgus monkey (Macaca fascicularis), UniProt O95150 72-251 (human entry)); experiment: SPR 37C, mAb captured
T3 construct: with or without N-terminal Met; also called MfTL1A (E. Coli)
T3 chain: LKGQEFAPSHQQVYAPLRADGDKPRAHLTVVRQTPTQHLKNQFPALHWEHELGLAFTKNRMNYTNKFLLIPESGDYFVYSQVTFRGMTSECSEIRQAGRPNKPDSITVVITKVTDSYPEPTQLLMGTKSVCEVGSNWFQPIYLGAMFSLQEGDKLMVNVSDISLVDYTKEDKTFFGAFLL
Method in brief: as §1

[4] = target: T4, mouse TL1A, soluble, CHO-expressed, residues 76-252 of SEQ ID NO:250 with N-terminal His6-tag (mouse, UniProt Q5UBV8 76-252); experiment: SPR 37C, mAb captured
T4 construct: also called mTL1A; mTL1A (CHO)
T4 sequence: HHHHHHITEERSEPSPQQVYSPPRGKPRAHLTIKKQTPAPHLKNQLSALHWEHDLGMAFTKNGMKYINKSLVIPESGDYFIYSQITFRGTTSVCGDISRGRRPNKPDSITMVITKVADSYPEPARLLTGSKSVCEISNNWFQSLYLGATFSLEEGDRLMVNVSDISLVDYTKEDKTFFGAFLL
Method in brief: as §1

[5] = target: T5, Fhm, hTL1A(Q167R), soluble, CHO-expressed, residues 72-251 of SEQ ID NO:246 (human, UniProt O95150 72-251); experiment: ELISA, blocks FHM (150 pM) binding hDR3-Fc
T5 construct: also called Fhm (CHO); FHM (CHO)
T5 chain: T1 sequence with Q102R
Experimental: The ability of antibodies to block human TL1A binding to its cognate receptors, the DR3 and DcR3 receptors, was measured using a competition sandwich ELISA. In addition, blocking of a human TL1A variant FHM (human TL1A Q167R) and the cynomolgus monkey (Macaca fascicularis) TL1A (MfTL1A) protein binding to the human DR3 or DcR3 receptors was measured in the same manner. Constant amounts of biotinylated human TL1A or FHM (both expressed with a 6-His tag in CHO cells) or biotinylated MfTL1A (expressed in CHO cells) were separately titrated with varying amounts of antibodies. The antibody-protein complexes were incubated in solution (1 hr, 25° C.) and then transferred to microtiter plates coated with human DR3 (hDR3) or human DcR3 (hDcR3) expressed as human IgG1 Fc fusion proteins. After one hour at 25° C. the wells were washed, and bound human or monkey TL1A was detected with streptavidin conjugated with horseradish peroxidase (HRP). Wells were developed with a TMB solution to produce a colorimetric reaction and quenched with aqueous sulfuric acid before reading absorbance at 450 nm on a Perkin-Elmer Victor X5 plate reader. A sigmoidal dose-response curve was fit to the data using the Prism™ data analysis package. […] Both fully human anti-hTL1A mAbs and comparator antibodies, i.e., control mAb1 (an anti-hTL1A antibody with heavy and light chain variable domains having the amino acid sequences corresponding to SEQ ID NOS:21 and 27, respectively, of US 2009/0280116) and control mAb3 (an anti-hTL1A antibody with heavy and light chain variable domains having the amino acid sequences corresponding to SEQ ID NOS:57 and 48, respectively, of US 2009/0280116), were included in the study. NB: No binding under the conditions tested; NT: Not tested. Concentrations of biotinylated soluble ligands: (1) 150 pM; (2) 500 pM; (3) 10 pM; and (4) 50 pM.

[6] = target: T6, Fhm, hTL1A(Q167R), soluble, E. coli-expressed, residues 72-251 of SEQ ID NO:246 (human, UniProt O95150 72-251); experiment: SPR 37C, mAb captured
T6 construct: with or without N-terminal Met
T6 chain: T3 chain with L39F, V78I, Q96R
Method in brief: as §1

B1: H4H1681N (antibody, human IgG4 S228P, V domains shown)
VH: EVQLLESGGGLVQPGKSLRLSCAVSGFTFSTYGMNWVRQAPGKGLEWVSSISGTGRTTYHADSVQGRFTVSRDNSKNILYLQMNSLRADDTAVYFCTKERGDYYYGVFDYWGQGTLVTVSS
VL: DIQMTQSPSTLSASVGDRVTITCRASQTISSWLAWYQQTPEKAPKLLIYAASNLQSGVPSRFSGSGSGTEFTLTISSLQPDDFATYYCQQYHRSWTFGQGTKVEIT
- Kd [1]: 0.254 nM
- t1/2 [1]: 0.517 h
- Kd [2]: 0.226 nM
- t1/2 [2]: 0.533 h

B2: H4H1752P (antibody, human IgG4 S228P, V domains shown)
VH: EVQLVESGGGLVQPGGSLRLSCSASGFTFSKYVMTWVRQAPGKGLEWVSAIGPTGRTTEYADSVQGRFTISRDNSMNTVFLHLNSLTAEDTAEYYCAKMFDWNYDVYFDSWGQGTLVTVSS
VL: DIQMTQSPSILSASVGDRVTITCRTSQSISNWLAWYQQKPGKAPNLLIYKASSLESGVPSRFSGSGSGTEFTLTISSLQPDDFATYYCQQYYRYWTFGQGTKVEIK
- Kd [1]: 0.225 nM
- t1/2 [1]: 1.6 h
- Kd [2]: 0.223 nM
- t1/2 [2]: 1.52 h
- Kd [3]: 1.32 nM
- t1/2 [3]: 0.483 h
- binding result [4]: no binding (tested: up to 100 nM)

B3: H4H1704N (antibody, human IgG4 S228P, V domains shown)
VH: EVQLVESGGGLVQPGGSLRLSCAVSGFTFSSYWMSWVRQAPGKGLEWVANIKEDGSEKNYVDSVKGRFTLSSDNAKNSLYLQMNSLRAEDTAVYYCAREDYDSYYKYGMDVWGQGTAVIVSS
VL: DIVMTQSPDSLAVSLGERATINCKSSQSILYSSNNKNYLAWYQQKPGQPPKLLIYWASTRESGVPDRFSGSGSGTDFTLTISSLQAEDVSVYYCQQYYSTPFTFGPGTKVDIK
notes: human IgG4(S108P) form of H2M1704N
- Kd [4]: 1.3 nM
- t1/2 [4]: 0.45 h
- IC50 [5]: 0.044 nM

B4: H4H1725P (antibody, human IgG4 S228P, V domains shown)
VH: QVQLVQSGAEVKKPGASVKVSCKASGYTFTGYYMHWVRQAPGQGLEWMGWIKPKSGGTNYVQKFQGRVTMTRDTSINTAYMELNNLKSDDTAVYYCATGGSQDASDFWGQGTMVTVSS
VL: DIQMTQSPSSVSASVGGRVTITCRASQDISIWLAWYQQKPGKAPNLLIYAASSLQSGVPSRFSGSGSGTDFTLTISSLQPEDFATYYCQQADSFPLTFGGGTKVEIK
- Kd [1]: 0.0239 nM
- t1/2 [1]: 12.6 h
- Kd [6]: 0.0436 nM
- t1/2 [6]: 3.23 h
- Kd [2]: 0.0177 nM
- t1/2 [2]: 14.8 h
- Kd [3]: 0.0622 nM
- t1/2 [3]: 2.9 h
- IC50 [5]: 0.018 nM

B5: H4H1742P (antibody, human IgG4 S228P, V domains shown)
VH: EVQLVESGGGLVQPGGSLRLSCAASGFTFSNYVMNWVRQAPGKGLEWVSVISGSGGSTHYADSVKGRFTISRDNSKDALYLQMNSLRAEDTAVYYCAKGPLEAYYYYNGMDVWGQGTTVTVSS
VL: DIQLTQSPSFLSASVGDRVTITCWASQAISSYLAWYQHKPGRAPKLLIYSTSTLQSGVPSRFSGSGSGTEFTLTISSLQPEDFATYYCQQLNSYPTFGQGTKLEIK
- Kd [6]: 0.696 nM
- t1/2 [6]: 0.75 h
- Kd [3]: 0.945 nM
- t1/2 [3]: 0.583 h
- binding result [4]: no binding (tested: up to 100 nM)
- IC50 [5]: 0.214 nM

B10: H4H1750P (antibody, human IgG4 S228P, V domains shown)
VH: QVQLVESGGGVVQPGRSLRLSCVASGFTFSNYGMHWVRQAPGKGLEWVAVISYDGNNDLYSDSVKGRFTISRDNAKNALSLQMTSLRAEDTAVYYCARDSTMTPYYYHGIDVWGQGTTVTVSA
VL: DIQMTQSPSSLSASVGDRVTITCRASQDIRNDLGWYQQKPGKAPKRLIYAASSLQSGVPSRFSGSGSGTDFTLTISSLQPEDFATYYCLQHNSYPPTFGQGTKVEIK
- Kd [6]: 0.244 nM
- t1/2 [6]: 5.58 h
- Kd [3]: 456 nM
- t1/2 [3]: 0.0167 h
- binding result [4]: no binding (tested: up to 100 nM)
- IC50 [5]: 0.589 nM

Results, then the binder that gave them:

- Kd [1]: 0.299 nM
- t1/2 [1]: 1.33 h
- Kd [2]: 0.352 nM
- t1/2 [2]: 1.13 h
B6: H4H1805N (antibody, human IgG4 S228P, V domains shown)
VH: QVQLQQWGAGLLKPSETLSLTCAVYGGSFTGFYWSWIRQPPGKGLEWIGEINHRGNTNYNPSLKSRVTMSVDTSKNQFSLNMISVTAADTAMYFCASPFYDFWSGSDYWGQGTLVTVSS
VL: DIMLTQTPLTSPVTLGQPASISCKSSQSLVHSDGNTYLSWLQQRPGQPPRLLFYKISNRFSGVPDRFSGSGAGTDFTLKISRVEAEDVGVYYCMQATQFPLTFGGGTKVEIK
notes: human IgG4(S108P) form of H2M1805N

- Kd [1]: 0.0458 nM
- t1/2 [1]: 4.77 h
- Kd [2]: 0.078 nM
- t1/2 [2]: 2.78 h
- binding result [4]: no binding (tested: up to 100 nM)
B7: H4H1804N (antibody, human IgG4 S228P, V domains shown)
VH: QVQLHQWGAGLLKPSETLSLTCAVSGVSFSDYHWAWIRQSPGKGLEWIGDINHRGRTNYNPSLKSRVTISLDTSGNPFSLKLTSVTAADTAVYYCARDFPNWVFDSWGQGILVTVSS
VL: EIVLSQSPGTLSLSPGERATLSCRASQSVSSSFLAWYQQYPGQAPRLLIYGASRRATGIPDRFRGSGSGTDFTLTISRLEPEDFAVYYCQQYGSSPLTFGGGTKVENK
notes: human IgG4(S108P) form of H2M1804N

- Kd [1]: 0.0278 nM
- t1/2 [1]: 18.3 h
- Kd [2]: 0.0256 nM
- t1/2 [2]: 19.2 h
- IC50 [5]: 0.235 nM
B8: H4H1817N (antibody, human IgG4 S228P, V domains shown)
VH: QVQLQQWGAGLLKPSETLSLTCAVSGGSFSDYFWTWIRQPPGKGLEWIGEISHSGRTNYNPSLKSRVTISVDTSMSQFSLKMTSVTAADSAVYYCARDYPNWVFDYWGQGTLVTVSS
VL: EIELTQSPGTLSLSPGEGATLSCRASQSVFNSYLAWYQQKPGQAPRLLIYGASRRATGIPDRFSGSGSGTDFTLTISRLEPGDFAVYFCQQYGNSPLTFGGGTKVEIK
notes: human IgG4(S108P) form of H2M1817N

- IC50 [5]: 0.202 nM
B9: H4H1818N (antibody, human IgG4 S228P, V domains shown)
VH: RLQLVESGGGLVKPGGSLKLSCAASGFTISDYYMSWIRQAPGKGLEWVSYIGGSGSTIYYADSVKGRFTISRDNAKNSLYLQMNSLRAEDTAVYYCAREDADSYYYYGMDVWGQGTTVTVSS
VL: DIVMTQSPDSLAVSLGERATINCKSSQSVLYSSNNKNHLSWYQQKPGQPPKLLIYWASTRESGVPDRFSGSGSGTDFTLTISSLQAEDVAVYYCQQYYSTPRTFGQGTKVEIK
notes: human IgG4(S108P) form of H2M1818N
